Results from article PMC10229621.

What follows are substances tested against T4 capsid (empty HocΔSocΔ head from the 10-amber.13-amber.HocΔ.SocΔ T4 mutant) (bacteriophage T4) (UniProt P19896) (assay: co-sedimentation).

Substance | stoichiometry N (molecules per capsid) | stoichiometry N (copies per capsid)
Cpf1-Soc | 450 | 
Cre-Hoc | 95 | 
Cre-Soc | 630 | 
GFP-Soc | 660 | 
NLS-Cas9-Soc | 550 | 
RGD-Hoc | 85 | 
Soc-RGD | 710 | 
Soc-TAT | 750 | 520
β-Gal-Soc | 320 | 
